Square brackets hold non-standard residues; d marks the D form. Ends that are not written are not given here. pT = C[C@@H](OP(=O)(O)O)[C@H](N)C(=O)O

The assay deals with T1, pT231-tau peptide locked in trans (pT231-Ala).
T1 construct: also called trans pT231-tau peptide
T1 peptide: KVAVVR[pT]APKSPS
Description: ELISA, hybridoma culture supernatant on peptide. The protocol: To develop cis and trans pT231-tau mouse mAbs, 74% cis pT231-Pip tau peptide as described previously in Nakamura et al., Cell 149: 232-244, 2012 was used to immunize mice. The procedure produced 480 hybridoma clones that were then characterized. […] The nucleic acid and protein sequences including the CDRs of the mAb heavy chain and light chain are shown below. […] The DNA sequences of the heavy and light chains of the mAbs were determined using 5′ RACE RT-PCR techniques, as described in Bradbury et al., Neurobiol Aging 16:465-475, 1995. […] Predicted protein sequences are highly conserved in Framework regions, with clear differences in complementary determining region (CDR) 1-3 (FIGS. 8 and 9).

B1: Cis mAb-#113 (antibody, V domains shown)
VH: QVQLQQPGAELVKPGASVKMSCKASGYTFTSYWIHWVKQRPGQGLEWIGVIDPSDSYTRYNQKFKGKATLTVDTSSSTAYMQLSSLTSEDSAVYYCTTWEVDYWGQGTTLTVSS
VL: DVVMTQTPLSLPVSLGDQASISCRSSQSLVHSDGNTYLHWYLQKPGQSPKLLIYKVSNRFSGVPDRFSGSGSGTDFTLKISRLEAEDLGVYFCSQSTHVPWTFGGGTKLEIKR
notes: Mouse monoclonal antibody from a hybridoma, screened as culture supernatant; also called cis pT231-tau mouse mAb
Consider B1, for which the binding result is listed as “no binding”.

B2: Cis mAb-#74 (antibody, V domains shown)
VH: DVQLQESGPGLVKPSQSLSLTCSVTGYSITSGYYWNWIRQFPGNKLEWMGYISYDGSNNYNPSLKNRISITRDTSKNQFFLKLNSVTTEDTATYYCAGLRRDAYWGQGTLVTVSA
VL: DIQMTQTTSSLSASLGDRVTISCRASQDISNYLNWYQQKPDGTVKLLIYYTSRLHSGVPSRFSGSGSGTDYSLTISNLEQEDIATYFCQQGNTLPWTFGGGTKLEIKR
notes: Mouse monoclonal antibody from a hybridoma, screened as culture supernatant; also called cis hybridoma clone #74; cis pT231-tau mouse mAb
For the molecule B2, the binding result is listed as “no binding”.

These data come from US20160031977A1 (BETH ISRAEL DEACONESS MEDICAL CENTER, published 2016).
